Where two headings read alike, the source gives them in different places.
Legend:
[1] = target: FruR labelled with NT-647 (wild type, for MST) (Faecalibacterium prausnitzii A2-165); assay: MST
[2] = target: FruR labelled with NT-647 (wild type, for MST) (Faecalibacterium prausnitzii A2-165); assay: MST; remark: listed apart in the source

## HPr2, unlabeled (wild type, for MST) (natural protein)
[1]
  Kd: 0.448 µM
[2]
  Kd: 0.00107 µM

Reference: paper PMC11906611
